Experimental data as given in article doi:10.1101/2020.02.29.971473.

Biological target: human PCNA, purified (immobilised on the GLC chip) (human), P12004
Experiment: SPR
Conditions: remark: other sources report otherwise

human PCNA, purified (immobilised on the GLC chip) (human), P12004, sequence (P12004 whole entry): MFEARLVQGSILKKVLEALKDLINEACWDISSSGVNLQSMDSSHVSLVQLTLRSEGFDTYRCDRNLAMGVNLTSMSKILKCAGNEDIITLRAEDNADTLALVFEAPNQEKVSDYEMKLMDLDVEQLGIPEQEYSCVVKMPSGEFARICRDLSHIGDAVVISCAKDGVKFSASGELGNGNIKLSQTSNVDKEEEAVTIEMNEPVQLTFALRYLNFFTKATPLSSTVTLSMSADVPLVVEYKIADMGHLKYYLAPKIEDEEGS

B1: p125 (PolD1), catalytic subunit of human DNA polymerase delta, purified, P28340 1-1107 (natural protein)
chain: MDGKRRPGPGPGVPPKRARGGLWDDDDAPRPSQFEEDLALMEEMEAEHRLQEQEEEELQSVLEGVADGQVPPSAIDPRWLRPTPPALDPQTEPLIFQQLEIDHYVGPAQPVPGGPPPSRGSVPVLRAFGVTDEGFSVCCHIHGFAPYFYTPAPPGFGPEHMGDLQRELNLAISRDSRGGRELTGPAVLAVELCSRESMFGYHGHGPSPFLRITVALPRLVAPARRLLEQGIRVAGLGTPSFAPYEANVDFEIRFMVDTDIVGCNWLELPAGKYALRLKEKATQCQLEADVLWSDVVSHPPEGPWQRIAPLRVLSFDIECAGRKGIFPEPERDPVIQICSLGLRWGEPEPFLRLALTLRPCAPILGAKVQSYEKEEDLLQAWSTFIRIMDPDVITGYNIQNFDLPYLISRAQTLKVQTFPFLGRVAGLCSNIRDSSFQSKQTGRRDTKVVSMVGRVQMDMLQVLLREYKLRSYTLNAVSFHFLGEQKEDVQHSIITDLQNGNDQTRRRLAVYCLKDAYLPLRLLERLMVLVNAVEMARVTGVPLSYLLSRGQQVKVVSQLLRQAMHEGLLMPVVKSEGGEDYTGATVIEPLKGYYDVPIATLDFSSLYPSIMMAHNLCYTTLLRPGTAQKLGLTEDQFIRTPTGDEFVKTSVRKGLLPQILENLLSARKRAKAELAKETDPLRRQVLDGRQLALKVSANSVYGFTGAQVGKLPCLEISQSVTGFGRQMIEKTKQLVESKYTVENGYSTSAKVVYGDTDSVMCRFGVSSVAEAMALGREAADWVSGHFPSPIRLEFEKVYFPYLLISKKRYAGLLFSSRPDAHDRMDCKGLEAVRRDNCPLVANLVTASLRRLLIDRDPEGAVAHAQDVISDLLCNRIDISQLVITKELTRAASDYAGKQAHVELAERMRKRDPGSAPSLGDRVPYVIISAAKGVAAYMKSEDPLFVLEHSLPIDTQYYLEQQLAKPLLRIFEPILGEGRAEAVLLRGDHTRCKTVLTGKVGGLLAFAKRRNCCIGCRTVLSHQGAVCEFCQPRESELYQKEVSHLNALEERFSRLWTQCQRCQGSLHEDVICTSRDCPIFYMRKKVRKDLEDQEQLLRRFGPPGPEAW
- Kd: 100 nM
- response units: 90 RU
